The values below come from paper PMC12024694, “RNA Binding to CCRRM of PABPN1 Induces Conformation Change”.

Data set [1] concerns the target T1, PABPN1 CCRRM fragment (coiled coil + RRM) (UniProt Q86U42 114-254).
T1 sequence: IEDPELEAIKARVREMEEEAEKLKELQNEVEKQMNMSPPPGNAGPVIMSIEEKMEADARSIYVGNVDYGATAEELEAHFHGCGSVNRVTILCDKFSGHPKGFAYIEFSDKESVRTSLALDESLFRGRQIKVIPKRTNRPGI
In words: BLI; kon 3.589e-5 (so in the source), koff 1.34e-3 s-1; room temperature; EMSA and SHAPE: 10 mM Tris-HCl pH 8.0, 25 mM KCl, 10 mM NaCl, 1 mM MgCl2, 10% glycerol, 0.5 mM DTT, 25 C, 20 min (1M7 step at 35 C); BLI: room temperature, 0.5. The following applies: protein: recombinant; tags: Trx and His (Ni-NTA) fusion, pET-MG vector; label: 5' biotin. For orientation: Biolayer interferometry detects binding as a change in optical thickness at a sensor tip.

The target of data set [2] is T1, PABPN1 CCRRM fragment (coiled coil + …). Briefly: BLI; kon 4.1e-5 (so in the source), koff 1.71e-3 s-1; text ranks A12 lowest affinity, inconsistent with values; EMSA and SHAPE: 10 mM Tris-HCl pH 8.0, 25 mM KCl, 10 mM NaCl, 1 mM MgCl2, 10% glycerol, 0.5 mM DTT, 25 C, 20 min (1M7 step at 35 C); BLI: room temperature, 0.5. The following applies: protein: recombinant; tags: Trx and His (Ni-NTA) fusion, pET-MG vector; label: 5' biotin.

The target is the same in data set [3]. Briefly: EMSA; 50 uM RNA; protein:RNA ratio 0 to 5; EMSA and SHAPE: 10 mM Tris-HCl pH 8.0, 25 mM KCl, 10 mM NaCl, 1 mM MgCl2, 10% glycerol, 0.5 mM DTT, 25 C, 20 min (1M7 step at 35 C); BLI: room temperature, 0.5. The following applies: protein: recombinant; tags: Trx and His (Ni-NTA) fusion, pET-MG vector. Background: A gel shift assay detects complexes by their altered migration in electrophoresis.

Data set [4] shares this target. Briefly: BLI; kon 4.24e-5 (so in the source), koff 2.031e-3 s-1; text ranks A18 intermediate, inconsistent with values; EMSA and SHAPE: 10 mM Tris-HCl pH 8.0, 25 mM KCl, 10 mM NaCl, 1 mM MgCl2, 10% glycerol, 0.5 mM DTT, 25 C, 20 min (1M7 step at 35 C); BLI: room temperature, 0.5. To be noted: protein: recombinant; tags: Trx and His (Ni-NTA) fusion, pET-MG vector; label: 5' biotin.

For data set [5] the target is unchanged. In words: SHAPE footprinting (1M7); A-rich protected, CU-rich partly protected; CA-rich and GU-rich stable, AU-rich more reactive; text elsewhere calls GU-rich moderate affinity; EMSA and SHAPE: 10 mM Tris-HCl pH 8.0, 25 mM KCl, 10 mM NaCl, 1 mM MgCl2, 10% glycerol, 0.5 mM DTT, 25 C, 20 min (1M7 step at 35 C); BLI: room temperature, 0.5. To be noted: protein: recombinant; tags: Trx and His (Ni-NTA) fusion, pET-MG vector.

Data set [6] shares this target. Briefly: EMSA; 40 uM RNA; protein:RNA ratio 0 to 10; EMSA and SHAPE: 10 mM Tris-HCl pH 8.0, 25 mM KCl, 10 mM NaCl, 1 mM MgCl2, 10% glycerol, 0.5 mM DTT, 25 C, 20 min (1M7 step at 35 C); BLI: room temperature, 0.5. The following applies: protein: recombinant; tags: Trx and His (Ni-NTA) fusion, pET-MG vector.

A word on the Kd: it is the concentration at which binding is half-saturated. Take AAAAAA (ssRNA) [A6]: the dissociation constant (Kd) in data set [1] is 3.38 nM.
Regarding AAAAAAAAAAAA (ssRNA) [A12], in data set [2], the Kd was determined as 4.17 nM.

B1: A-rich RNA (ssRNA)
RNA: UAAUACGACUCACUAUAGGGUGGUCAGUCGAGUGGAAAAAAAAAAAAAAAAAAGGGCGGCAUGGUCCCAGCCUCCU
With B1, the binding result in data set [3] was “binds”.
Turning to AAAAAAAAAAAAAAAAAA (ssRNA) [A18], the dissociation constant (Kd) in data set [4] came to 4.79 nM.

B2: RE_A-rich RNA (structured_RNA)
RNA: CCUUCGGGCCAAAUUUAUUUAUUUAUUUAUUUAGCUGACGAUAAAAAAAAAAAAAAAAAACCACACACACAGGAAUCGACUCUGUUUGUUUGUGUUUGUUUGUACUGAAUUGGCACUUUUCCCCUUUUCCCUUUCUGGACUGGCAUCGAUCCGGUUCGCCGGAUCCAAAUCGGGCUUCGGUCCGGUUC
As for B2, the binding result in data set [5] is reported as “binds”.

B3: U-rich RNA (ssRNA)
RNA: UAAUACGACUCACUAUAGGGUGGUCAGUCGAGUGGUUUUUUUUUUUUUUUUUUGGGCGGCAUGGUCCCAGCCUCCU
Consider B3, for which the binding result in data set [6] is recorded as “no binding”.
